B1: BMP4: Recombinant BMP4 protein obtained from Stemgent (protein, UniProt P12644 293-408, looked up)
Bone morphogenetic protein 4: SPKHHSQRARKKNKNCRRHSLYVDFSDVGWNDWIVAPPGYQAFYCHGDCPFPLADHLNSTNHAIVQTLVNSVNSSIPKACCVPTELSAISMLYLDEYDKVVLKNYQEMVVEGCGCR
B2: SFRP1: Recombinant human SFRP1 protein (R&D Systems), secreted decoy receptor binding canonical and non-canonical Wnt ligands (protein, UniProt Q8N474 32-314, looked up)
Secreted frizzled-related …: SEYDYVSFQSDIGPYQSGRFYTKPPQCVDIPADLRLCHNVGYKKMVLPNLLEHETMAEVKQQASSWVPLLNKNCHAGTQVFLCSLFAPVCLDRPIYPCRWLCEAVRDSCEPVMQFFGFYWPEMLKCDKFPEGDVCIAMTPPNATEASKPQGTTVCPPCDNELKSEAIIEHLCASEFALRMKIKEVKKENGDKKIVPKKKKPLKLGPIKKKDLKKLVLYLKNGADCPCHQLDNLSHHFLIMGRKVKSQYLLTAIHKWDKKNKEFKNFMKKMKNHECPTFQSVFK

How the values were obtained:
[1] = tested on: HTwist cells; assay: Mammosphere assay, HTwist cells; type: cell-based, human; conditions: for reduction in sphere-forming efficiency, primary mammosphere formation: single vs combined proteins, daily for 5 days (FIG. 10C)
Experimental: FIGS. 10A-10E. […] (FIG. 10E) Mammosphere Assay: HTwist and MSP were treated daily during mammosphere formation (5 days) with BMP4 (0.5 μg/ml), SB431542 (10 μM) or a combination of both, n(mammospheres)/1000 cells, n=6.
(§1) Mammosphere and tumorsphere assay. Assays were performed as previously described with modifications (Dontu et al., 2003): 1000 cells/well were seeded in 96-well ultra-low adhesion plates (Corning) in MEGM medium containing 1.3% methylcellulose (Stem Cell Technologies) supplemented with 20 ng/ml EGF, 10 ng/ml bFGF (both Sigma) and B27 (Gibco). Primary spheres were dissociated by trypsinization and replated for secondary sphere formation after a period of 5-7 days.

[2] = tested on: MSP-RAS cells; assay: Tumorsphere assay, MSP-RAS cells; type: cell-based, human; conditions: for reduction of primary tumorsphere formation: SFRP1 1 μg/ml, BMP4 0.5 μg/ml daily during primary sphere formation; for reduction of secondary tumorsphere formation: treated during primary sphere formation only
Experimental: (§2) FIGS. 4A-4G. Autocrine Signaling controls tumorigenicity and metastasis of MSP-RAS cells. (FIG. 4A) Migration assay: RAS-transformed MSP (MSP-RAS) were seeded in Boyden Chamber migration assays and recombinant SFRP1 (1 μg/ml) and BMP4 protein (0.5 μg/ml) were added; *control vs. single treatment, p<1×10^−8, **single vs. double treatment with SFRP1 and BMP4 (S+B), p<1×10^−4, n=3. (FIG. 4B) Tumorsphere assay: SFRP1 (1 μg/ml) and BMP4 protein (0.5 μg/ml) were added daily during primary sphere formation (5 days), spheres were dispersed and seeded for secondary sphere formation in the absence of further treatment; #control primary vs. secondary sphere formation, p=0.001; *control vs. single treatment, p<1×10^−4, **single vs. double treatment with SFRP1 and BMP4 (S+B), p<0.01, n(tumorspheres)/1000 cells, n=6. (FIG. 4C) Flow cytometry: CD44 and CD24 cell-surface markers of dissociated primary tumorspheres as described in (B). (FIG. 4D) Orthotopic tumor formation after ex vivo treatment during tumorsphere formation: primary tumorspheres as generated in (B) were pooled, dissociated and 1.0×10^5 cells were implanted in the fat pads of mice; shown are tumor weight and incidence, *indicates absence of tumor, n=5 mice/group. (FIG. 4E) Lung metastasis: fluorescence microscopy images of the major left lung lobe showing GFP-expressing metastatic nodules and quantification of the number of lung surface metastases; *control vs. SFRP1 treatment, p<0.05, **SFRP1 vs. BMP4 or double treatment (S+B), p<0.05, n=5 mice/group. (FIG. 4F) Liver metastasis: fluorescence microscopy images of the liver surface showing GFP-expressing micro-metastatic nodules after implantation of cells as described in (D) and quantification: 5 fields of liver surface were counted per mouse, *control vs. single treatment, p<0.05, **single vs. double treatment (S+B), p<0.05, n=5 mice/group. (FIG. 4G) Tumorigenicity assay: MSP-RAS cells suspended in PBS containing SFRP1 (1 μg/ml), BMP4 (0.5 μg/ml), and a combination of both (S+B) were implanted subcutaneously in mice at indicated cell numbers. In addition, 20 μl of PBS or PBS with proteins at indicated doses was injected peri-tumorally at 1, 2, 3 and 7 days after implanting the MSP-RAS cells.
as §1

[3] = tested on: MSP-RAS cells; assay: Orthotopic tumor formation and metastasis after ex vivo treatment of MSP-RAS tumorspheres; type: in vivo, mice; conditions: for reduction in lung metastases / reduction of metastatic foci in the liver: foci normalized by primary tumor weight, ex vivo treatment; for reduction of tumor weight / reduction of metastatic foci in the liver: on average
Experimental: as §2
We also wished to determine whether in vitro exposure to SFRP1 and BMP4 influenced subsequent in vivo behavior of MSP-RAS cells. For this purpose, we prepared single-cell suspensions from primary control MSP-RAS tumorspheres or from the residual tumorspheres that had formed during a 5 day in vitro treatment with SFRP1, BMP4 or a combination of both. Following injection of these populations into the mammary fat pads of mice, we noted that the tumors that originated from mammospheres of MSP-RAS cells that had been exposed ex vivo to either SFRP1, BMP4 or a combination of both were reduced in weight by 3-fold on average (FIG. 4D). However, we only observed a modest reduction in tumor incidence for the BMP4 and combination-treated groups (30%, FIG. 4D).
Animal studies. All research involving animals complied with protocols approved by the MIT Committee on Animal Care. For tumorigenicity studies, indicated numbers of cells in 100 μL of Matrigel (BD Biosciences) diluted 1:4 in PBS were injected subcutaneously in the left and right flanks of age-matched female nude (nu/nu) mice. Mice were sacrificed and necropsied after 10 weeks. For orthotopic injections, 1×10^5 cells suspended in PBS were injected into each of the two inguinal mammary glands of age-matched female NOD-SCID mouse. Mice were sacrificed after 10 weeks or when tumors reached a diameter >1 cm. Lung surface metastases were counted using a fluorescent microscope within 3 hr of specimen isolation.

[4] = tested on: MSP-RAS primary tumorspheres; assay: Flow cytometry of CD44/CD24 in MSP-RAS primary tumorspheres; type: cell-based, human; conditions: control tumorspheres 6.4%
Experimental: FIGS. 4A-4G. Autocrine Signaling controls tumorigenicity and metastasis of MSP-RAS cells. (FIG. 4A) Migration assay: RAS-transformed MSP (MSP-RAS) were seeded in Boyden Chamber migration assays and recombinant SFRP1 (1 μg/ml) and BMP4 protein (0.5 μg/ml) were added; *control vs. single treatment, p<1×10^−8, **single vs. double treatment with SFRP1 and BMP4 (S+B), p<1×10^−4, n=3. […] (FIG. 4E) Lung metastasis: fluorescence microscopy images of the major left lung lobe showing GFP-expressing metastatic nodules and quantification of the number of lung surface metastases; *control vs. SFRP1 treatment, p<0.05, **SFRP1 vs. BMP4 or double treatment (S+B), p<0.05, n=5 mice/group. (FIG. 4F) Liver metastasis: fluorescence microscopy images of the liver surface showing GFP-expressing micro-metastatic nodules after implantation of cells as described in (D) and quantification: 5 fields of liver surface were counted per mouse, *control vs. single treatment, p<0.05, **single vs. double treatment (S+B), p<0.05, n=5 mice/group. […]
Fluorescent activated cell sorting (FACS) and flow cytometry. […] Samples were sorted on a BD FACSAria SORP and analyzed on a BD LSRII using BD FACSDiva Software (BD Biosciences).

[5] = tested on: HTwist and MSP cells; assay: Boyden chamber migration assay, HTwist and MSP cells; type: cell-based, human
Experimental: FIGS. 3A-3E. Autocrine Signaling controls migration and mammosphere formation.
FIGS. 10A-10E. […] (FIG. 10C) Mammosphere assay: HTwist cells were treated daily during mammosphere formation (5 days) with proteins as described in (B); *control vs. single treatment, p<1×10^−5, **single vs. double-treatment, p<0.01, n(mammospheres)/1000 cells, n=6, (FIG. 10D) Migration Assay: HTwist and MSP cells were seeded into Boyden Chambers in the presence of TGF-beta Receptor I inhibitors A83-01 and SB431542 (SB43, both at 10 μM). (FIG. 10E) Mammosphere Assay: HTwist and MSP were treated daily during mammosphere formation (5 days) with BMP4 (0.5 μg/ml), SB431542 (10 μM) or a combination of both, n(mammospheres)/1000 cells, n=6.
Migration and invasion assays. For migration assays, 2×10^4 cells were seeded into 24-well cell culture inserts with 8-μm pores (Boyden Chambers, BD Falcon). For invasion assays, matrigel-coated inserts (BD Falcon) were used. After 12-48 hr, the cells on the upper surface of the filters were removed with a cotton swab. For visualization, cells on lower filter surfaces were fixed and stained with a Diff-Quick staining kit (Dade Behring).

[6] = 5 day ex vivo treatment, mammary fat pad injection

Molecule	reduction in sphere-forming efficiency, primary mammosphere formation [1] [%]	reduction of primary tumorsphere formation [2] [%]	reduction of secondary tumorsphere formation [2] [%]	reduction in tumor incidence [3, 6] [%]	reduction in lung metastases [3] [fold]	reduction of tumor weight [3, 6] [fold]	reduction of metastatic foci in the liver [3] [fold]	CD24-positive cells in primary tumorspheres [4] [%]	maximum reduction of migration ([5]; HTwist or MSP cells) [fold]	reduction of primary mammosphere number ([1]; added daily for 5 days (FIG. 3D)) [%]	reduction of secondary sphere formation ([1]; treated during primary sphere formation only) [%]	reduction of migration ([5]; at the highest concentration) [fold]
B1	64	40	40	30	7.5	3	5	40	≤ 2			
B2	40	40	40		2	3	2.5	40		50	90	20
